{"source": "patent US20250205190A1", "about": "“NUTRITIONAL COMPOSITION” (N.V. NUTRICIA, priority 2022, published 2025)", "molecules": {"B1": {"name": "Lactoferrin (protein, UniProt P24627 20-708, looked up)", "Lactotransferrin": "APRKNVRWCTISQPEWFKCRRWQWRMKKLGAPSITCVRRAFALECIRAIAEKKADAVTLDGGMVFEAGRDPYKLRPVAAEIYGTKESPQTHYYAVAVVKKGSNFQLDQLQGRKSCHTGLGRSAGWIIPMGILRPYLSWTESLEPLQGAVAKFFSASCVPCIDRQAYPNLCQLCKGEGENQCACSSREPYFGYSGAFKCLQDGAGDVAFVKETTVFENLPEKADRDQYELLCLNNSRAPVDAFKECHLAQVPSHAVVARSVDGKEDLIWKLLSKAQEKFGKNKSRSFQLFGSPPGQRDLLFKDSALGFLRIPSKVDSALYLGSRYLTTLKNLRETAEEVKARYTRVVWCAVGPEEQKKCQQWSQQSGQNVTCATASTTDDCIVLVLKGEADALNLDGGYIYTAGKCGLVPVLAENRKSSKHSSLDCVLRPTEGYLAVAVVKKANEGLTWNSLKDKKSCHTAVDRTAGWNIPMGLIVNQTGSCAFDEFFSQSCAPGADPKSRLCALCAGDDQGLDKCVPNSKEKYYGYTGAFRCLAEDVGDVAFVKNDTVWENTNGESTADWAKNLNREDFRLLCLDGTRKPVTEAQSCHLAVAPNHAVVSRSDRAAHVKQVLLHQQALFGKNGKNCPDKFCLFKSETKNLLFNDNTECLAKLGGRPTYEEYLGTEYVTAIANLKKCSTSPLLEACAFLTR", "notes": "Friesland Campina, Vivinal Lactoferrin, comprises 96 wt. % lactoferrin; 2 mg/ml in well"}}, "test_in_all_cases": "i-screen in vitro colon microbiota model, fermentation of infant faecal pool, 16S rRNA sequencing", "type_in_all_cases": "cell-based", "conditions_in_all_cases": "t = 24 hours anaerobic fermentation, SIEM medium, 37° C., triplicate, ingredient conc. per Table 1", "key": {"Bacteroidaceae": {"system": "Bacteroidaceae", "description": "(§1) In an in vitro colon microbiota model, i-screen™ (TNO, Zeist, Netherlands), the effect of infant milk formula ingredients on the anaerobic fermentation of infant microbiota was assessed.\n(§2) The in vitro microbiota model mimics colonic conditions. Before a consumed ingredient reaches the colon in a human, already a part of the digestion/absorption has taken place in the gastrointestinal tract preceding the colon. For each ingredient the degree of digestion/absorption before reaching the colon varies and this was taken into account when selecting the ingredient concentrations to be tested (see Table 1).\n(§3) The infant faecal pool consisted of samples obtained from faeces of 5 European infants aged 3.5-8.5 months. The samples were thawed, homogenized, aliquoted and stored at −80° C. till the start of the i-screen assay run.\n(§4) • Before starting the fermentation with the test ingredients. The infant fecal pool was incubated in an anaerobic flask for 4 hours in SIEM (simulated ileal environment media) medium (pH 5.8) under anaerobic conditions (37° C.; 300 rpm). Subsequently this SIEM medium with feces was homogenized and distributed into a 96 w-plate. • The test ingredients were pre-diluted in a higher concentration in fresh SIEM medium and added to the existing medium in the 96 wells plate. For milk fat the addition method was slightly adapted, milk fat was added to fresh SIEM medium at 45° C., subsequently thoroughly homogenized, followed by addition to the wells in the 96 w plate. • The i-screen experiment included an untreated control (microbiota only), an positive control (Inulin, Raftiline ST), blanks (SIEM medium only) and technical controls (internal controls for DNA isolation and sequencing). • Each test condition was conducted in triplicate. • After 24 hours of fermentation in SIEM medium under anaerobic conditions at 37° C., samples were collected for DNA analyses. […]\n(§5) Changes in the microbiota composition were analyzed by using 16S rDNA amplicon sequencing. […] Amplicon quality and size were analyzed on a Fragment Analyzer (Advanced Analytical Technologies, Inc.). […]"}, "Bifidobacteriaceae": {"system": "Bifidobacteriaceae", "description": "as §1, §2, §3, §4, §5"}, "Enterobacteriaceae": {"system": "Enterobacteriaceae", "description": "as §1, §2, §3, §4, §5"}}}
{"molecule": "B1", "values": [{"measurement": "Average relative abundance (%) [st. dev] Bacteroidaceae", "setting": "Bacteroidaceae", "value": "19.81 (0.48) %"}, {"measurement": "Average relative abundance (%) [st. dev] Bifidobacteriaceae", "setting": "Bifidobacteriaceae", "value": "9.39 (1.50) %"}, {"measurement": "Average relative abundance (%) [st. dev] Enterobacteriaceae", "setting": "Enterobacteriaceae", "value": "41.73 (1.64) %"}]}
